Laboratory results reported in patent US20260167959A1, “APTAZYME-BASED REGULATABLE GENE EXPRESSION SYSTEMS” (REJUVENATE BIO INC, priority 2022, published 2026).

B1: RA380 (nucleic acid)
DNA: GCGCGTCCTGGATTCGCGGAAACGCCGAGAATACCAGCATCGTCTTGATGCCCTTGGAAGTCTCGGTACATCCAGCTGACGAGTCCCAAATAGGACGAAACGCGC
modifications: expressed or natural sequence
B2: RA381 (nucleic acid)
DNA: GCGCGTCCTGGATTCGCGGAAACGCGTACATCCAGCTGACGAGTCCCAAATAGGACGAAACGCGCCCGGAATACCAGCATCGTCTTGATGCCCTTGGAAGTCCGG
modifications: expressed or natural sequence
B3: RA368 (nucleic acid)
DNA: GCGCGTCCTGGATTCGCGGAAACGCGTACATCCAGCTGACGAGTCCCGAGAATACCAGCATCGTCTTGATGCCCTTGGAAGTCTCGCAAATAGGACGAAACGCGC
modifications: expressed or natural sequence
B4: RA362 (nucleic acid)
DNA: GCGCGTCCTGGAGGAATACCAGCATCGTCTTGATGCCCTTGGAAGTCCTTCGCGGAAACGCGTACATCCAGCTGACGAGTCCCAAATAGGACGAAACGCGC
modifications: expressed or natural sequence
B5: RA369 (nucleic acid)
DNA: GCGCGTCCTGGATTCGGAATACCAGCATCGTCTTGATGCCCTTGGAAGTCCGCGCGGAAACGCGTACATCCAGCTGACGAGTCCCAAATAGGACGAAACGCGC
modifications: expressed or natural sequence
B6: RA383 (nucleic acid)
DNA: CGGAATACCAGCATCGTCTTGATGCCCTTGGAAGTCCGGCGCGTCCTGGATTCGCGGAAACGCGTACATCCAGCTGACGAGTCCCAAATAGGACGAAACGCGC
modifications: expressed or natural sequence
B7: RA384 (nucleic acid)
DNA: GCGCGTCCTGGATTCGCGGAAACGCGTACATCCAGCTGACGAGTCGAGAATACCAGCATCGTCTTGATGCCCTTGGAAGTCTCCCAAATAGGACGAAACGCGC
modifications: expressed or natural sequence
B8: RA365 (nucleic acid)
DNA: GCGAGAATACCAGCATCGTCTTGATGCCCTTGGAAGTCTCGTCCTGGATTCGCGGAAACGCGTACATCCAGCTGACGAGTCCCAAATAGGACGAAACGCGC
modifications: expressed or natural sequence
B9: RA367 (nucleic acid)
DNA: GCGCGTCCTGGATGGAATACCAGCATCGTCTTGATGCCCTTGGAAGTCCTCGCGGAAACGCGTACATCCAGCTGACGAGTCCCAAATAGGACGAAACGCGC
modifications: expressed or natural sequence
B10: RA364 (nucleic acid)
DNA: GCGCGTCCTGGATTCGCGGAAACGCGTGGAATACCAGCATCGTCTTGATGCCCTTGGAAGTCCACATCCAGCTGACGAGTCCCAAATAGGACGAAACGCGC
modifications: expressed or natural sequence
B11: RA371 (nucleic acid)
DNA: GCGCGTCCTGGATTCGCGGAAACGCGTACATCCAGCTGACGAGTCCCAAAAGAATACCAGCATCGTCTTGATGCCCTTGGAAGTCTTAGGACGAAACGCGC
modifications: expressed or natural sequence
B12: RA382 (nucleic acid)
DNA: GCGCGTCCTGGATTCGCGGAAACGCGTACATCCAGCTGACGCCGGAATACCAGCATCGTCTTGATGCCCTTGGAAGTCCGGAGTCCCAAATAGGACGAAACGCGC
modifications: expressed or natural sequence
B13: RA385 (nucleic acid)
DNA: GCGCGTCCTGGATCCGGAATACCAGCATCGTCTTGATGCCCTTGGAAGTCCGGTCGCGGAAACGCGTACATCCAGCTGACGAGTCCCAAATAGGACGAAACGCGC
modifications: expressed or natural sequence
B14: RA366 (nucleic acid)
DNA: GCGCGTCCTGGATTCGCGGAAGAGAATACCAGCATCGTCTTGATGCCCTTGGAAGTCTCACGCGTACATCCAGCTGACGAGTCCCAAATAGGACGAAACGCGC
modifications: expressed or natural sequence
B15: RA375 (nucleic acid)
DNA: GCGCGTCCTGGATTCGCGGAAACGCGTACATCCAGCTCCGGAATACCAGCATCGTCTTGATGCCCTTGGAAGTCCGGGACGAGTCCCAAATAGGACGAAACGCGC
modifications: expressed or natural sequence
B16: RA363 (nucleic acid)
DNA: GCGCGTCCTGGATTCGCGGAAACGCGTACATCCAGCTGACGAGTCCCACGGAATACCAGCATCGTCTTGATGCCCTTGGAAGTCCGAATAGGACGAAACGCGC
modifications: expressed or natural sequence
B17: RA373 (nucleic acid)
DNA: GCGCGTCCTGGATTCGCGGAAACGCGTACATCCAGCTGACGAGTCCCAAGTGATACCAGCATCGTCTTGATGCCCTTGGCAGCACTAATAGGACGAAACGCGC
modifications: expressed or natural sequence
B18: RA386 (nucleic acid)
DNA: GCGCGTCCTGGATTCGCGGAAACGCGTACATCCAGCTGACGGGAATACCAGCATCGTCTTGATGCCCTTGGAAGTCCAGTCCCAAATAGGACGAAACGCGC
modifications: expressed or natural sequence
B19: RA372 (nucleic acid)
DNA: GCGCGTCCTGGATTCGCGGAAACGCGTACATCCAGCTGACGAGTCCCAAACGAGAATACCAGCATCGTCTTGATGCCCTTGGAAGTCTCGTAGGACGAAACGCGC
modifications: expressed or natural sequence
B20: RA378 (nucleic acid)
DNA: GCGCGTCCTGGATTCGCGGAAACGCGTACATCCCGGAATACCAGCATCGTCTTGATGCCCTTGGAAGTCCGGCAGCTGACGAGTCCCAAATAGGACGAAACGCGC
modifications: expressed or natural sequence
B21: RA370 (nucleic acid)
DNA: GCGCGTCCTGGATTCGCGGAAACGCGTACATCCAGCTGACGAGTCCCAAATAGGACGAAACGGGAATACCAGCATCGTCTTGATGCCCTTGGAAGTCCCGC
modifications: expressed or natural sequence
B22: RA377 (nucleic acid)
DNA: GCGCGTCCTGGATTCGCGGAAACGCGTACATCCAGCTGACGAGTCCCAAATAGGACGGAGAATACCAGCATCGTCTTGATGCCCTTGGAAGTCTCAAACGCGC
modifications: expressed or natural sequence
B23: RA376 (nucleic acid)
DNA: GCGCGTCCTGGATTCGCGGAAACGCGTACATCCAGCTGAAGAATACCAGCATCGTCTTGATGCCCTTGGAAGTCTCGAGTCCCAAATAGGACGAAACGCGC
modifications: expressed or natural sequence
B24: RA379 (nucleic acid)
DNA: GCGCGTCCTGGATTCGCGGAAACGCGGAATACCAGCATCGTCTTGATGCCCTTGGAAGTCCGTACATCCAGCTGACGAGTCCCAAATAGGACGAAACGCGC
modifications: expressed or natural sequence
B25: RA374 (nucleic acid)
DNA: GCGCGTCCTGGATTCGCGGAAACGCGTACATCCAGCTGCCGGAATACCAGCATCGTCTTGATGCCCTTGGAAGTCCGGACGAGTCCCAAATAGGACGAAACGCGC
modifications: expressed or natural sequence
B26: RA003 (nucleic acid)
DNA: GCGCGTCCTGCGGAATACCAGCATCGTCTTGATGCCCTTGGAAGTCCGGATTCGCGGAAACGCGTACATCCAGCTGACGAGTCCCAAATAGGACGAAACGCGC
modifications: expressed or natural sequence
B27: RA037 (nucleic acid)
DNA: GCGCGTCCTGGATTCGCCGGAATACCAGCATCGTCTTGATGCCCTTGGAAGTCCGGGAAACGCGTACATCCAGCTGACGAGTCCCAAATAGGACGAAACGCGC
modifications: expressed or natural sequence
B28: RA036 (nucleic acid)
DNA: GCGCGTCCTGGATTCGCGGAAACGCGTACATCCAGCTGACGAGTCCCAAATAGGCGAGAATACCAGCATCGTCTTGATGCCCTTGGAAGTCTCGACGAAACGCGC
modifications: expressed or natural sequence

What follows are molecules tested on Renilla luciferase RNA (assay: Barcoded aptazyme variant library screen: un-cleaved Renilla luciferase RNA by barcode read counts, HEK293-T cells). Details: un-cleaved Renilla luciferase RNA by barcode read counts; with 1 mM theophylline (ON) over without theophylline (OFF); HEK293-T cells; triplicate.
Format: cell-based
Method in brief: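 Barcode sequencing of cDNA versus DNA, normalized per aptazyme, gave the un-cleaved Renilla luciferase RNA fraction and fold-change with versus without theophylline (triplicates). Library: T3H48 ribozyme with one of seven theophylline aptamer variants inserted at each position, placed in the Renilla 3′ UTR of a dual-luciferase vector.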
For B1, the “Fold change in RNA expression between the ON state and the OFF state” value (“Fold change” for short) was 0.8.
With B2 the “Fold change” value was 0.8.
In the case of B3, the “Fold change” value is reported as 0.8.
In the case of B4, the “Fold change” value is reported as 0.8.
For B5, the “Fold change” value was 0.8.
B6 was tested, and the “Fold change” value was 0.8.
B7 was tested, and the “Fold change” value was 0.8.
In the case of B8, the “Fold change” value is reported as 0.8.
For B9, the “Fold change” value was 0.8.
For B10, the “Fold change” value was 0.8.
In the case of B11, the “Fold change” value is reported as 0.8.
In the case of B12, the “Fold change” value is reported as 0.8.
In the case of B13, the “Fold change” value is reported as 0.8.
With B14 the “Fold change” value was 0.8.
In the case of B15, the “Fold change” value is reported as 0.8.
With B16 the “Fold change” value was 0.8.
In the case of B17, the “Fold change” value is reported as 0.8.
B18 was tested, and the “Fold change” value was 0.8.
For B19, the “Fold change” value was 0.8.
In the case of B20, the “Fold change” value is reported as 0.8.
B21 was tested, and the “Fold change” value was 0.8.
B22 was tested, and the “Fold change” value was 0.8.
In the case of B23, the “Fold change” value is reported as 0.8.
In the case of B24, the “Fold change” value is reported as 0.8.
With B25 the “Fold change” value was 0.8.

Same assay, conditions: un-cleaved Renilla luciferase RNA, HEK293-T cells cultured with 1 mM theophylline (ON) over without theophylline (OFF); barcode read counts, triplicate
With B26 the “Fold change” value was 5.5 fold.
For B27, the “Fold change” value was 2.2 fold.
With B28 the “Fold change” value was 2.2 fold.
